Measured values taken from the Human Domainome abundance scans (Beltran et al. 2025).
± gives the uncertainty stated by the source.

B1: PMS1 protein homolog 1, residues 572 to 637; numbered along this chain, P54277 (parent)
chain: KKPMSASALFVQDHRPQFLIENPKTSLEDATLQIEELWKTLSEEEKLKYEEKATKDLERYNSQMKR

Variants of: B1
Experiment: abundance fitness (aPCA) (normalised: wild type 0, dead -1); higher = more abundant; growth selection in yeast, the domain comes from the species named
Conditions: Homo sapiens

KKPMSASALFVQDHRPQFLIENPKTSLEDATLQIEELWKTLSEEEKLKYEEKATKDLERYNAQMKR [S62A] and KKPMSASALFVQDHRPQFLIENPKTSLEDATLQIEELWKTLSEEEKLKYEEKATKDLERYNRQMKR [S62R] are within error of each other in abundance fitness: -0.017 ± 0.072 for the first, -0.09 ± 0.11 for the second.

SKPMSASALFVQDHRPQFLIENPKTSLEDATLQIEELWKTLSEEEKLKYEEKATKDLERYNSQMKR [K1S] and KKPMSASALFVQDHRPQFLIENPKTSLEDLTLQIEELWKTLSEEEKLKYEEKATKDLERYNSQMKR [A30L] are within error of each other in abundance fitness: -0.602 ± 0.2 for the first, -0.634 ± 0.38 for the second.

First: KKPMSASALFVQDHRPQFLIENPKTSLEDATLQIEELWKTLSEEEKLKYEEKATKDLERYNSAMKR [Q63A]
Second: KKPMSASALFVQDHRPQFLIENPKTSLEDATLQIEELWKTLSEEEKLKAEEKATKDLERYNSQMKR [Y49A]
The abundance fitness of the first is higher: 0.071 ± 0.079 for the first, -0.507 ± 0.1 for the second.

Going from KKPMSASALFVQDHRPQFLIENPKTSLEDATLQIEELWKTLSEEEKLKREEKATKDLERYNSQMKR [Y49R] to KKPMSASALFVQDHRPQFLIENPKTSLEDATLQIEELWKTLSEEEKLKEEEKATKDLERYNSQMKR [Y49E], the abundance fitness falls from -0.516 ± 0.081 to -0.819 ± 0.11.

KKPMSASALFVQDHRPQFLIENPKTSLEDATLQIEELWKTLSEEEKLKKEEKATKDLERYNSQMKR [Y49K] and KKPMSKSALFVQDHRPQFLIENPKTSLEDATLQIEELWKTLSEEEKLKYEEKATKDLERYNSQMKR [A6K] are within error of each other in abundance fitness: -0.583 ± 0.13 for the first, -0.348 ± 0.17 for the second.

KKPMSRSALFVQDHRPQFLIENPKTSLEDATLQIEELWKTLSEEEKLKYEEKATKDLERYNSQMKR [A6R] and KKPMSESALFVQDHRPQFLIENPKTSLEDATLQIEELWKTLSEEEKLKYEEKATKDLERYNSQMKR [A6E] are within error of each other in abundance fitness: -0.637 ± 0.072 for the first, -0.607 ± 0.09 for the second.

Compared with KKPMSQSALFVQDHRPQFLIENPKTSLEDATLQIEELWKTLSEEEKLKYEEKATKDLERYNSQMKR [A6Q], KKPMSASALFVQDHRPQFLIENPKTSLEDATLQIEELWKTLSEEEKLKYEEKATKLLERYNSQMKR [D56L] is higher in abundance fitness: -0.493 ± 0.18 for the first, -0.142 ± 0.079 for the second.

KKPMSASALFVQDHRPQFLIENPKTSLEDATLQIEELWKTLSEEEKLKYEEKATKKLERYNSQMKR [D56K] and KKPMAASALFVQDHRPQFLIENPKTSLEDATLQIEELWKTLSEEEKLKYEEKATKDLERYNSQMKR [S5A] are within error of each other in abundance fitness: -0.353 ± 0.17 for the first, -0.252 ± 0.13 for the second.

KKPMIASALFVQDHRPQFLIENPKTSLEDATLQIEELWKTLSEEEKLKYEEKATKDLERYNSQMKR [S5I] and KKPMGASALFVQDHRPQFLIENPKTSLEDATLQIEELWKTLSEEEKLKYEEKATKDLERYNSQMKR [S5G] are within error of each other in abundance fitness: -0.336 ± 0.28 for the first, -0.032 ± 0.087 for the second.

Going from KKPMLASALFVQDHRPQFLIENPKTSLEDATLQIEELWKTLSEEEKLKYEEKATKDLERYNSQMKR [S5L] to KKPMSASALFVQDHRPQFLIENPKTSLEDATLQIEELWKTLSTEEKLKYEEKATKDLERYNSQMKR [E43T], the abundance fitness rises from -0.283 ± 0.12 to 0.032 ± 0.073.

KKPMSASALFVQDHRPQFLIENPKTSLEDATLQIEELWKTLSVEEKLKYEEKATKDLERYNSQMKR [E43V] and KKPMSASALFVQDHRPQFLIENPKTSLEDATLQIEELWKTLSNEEKLKYEEKATKDLERYNSQMKR [E43N] are within error of each other in abundance fitness: -0.026 ± 0.053 for the first, 0.046 ± 0.13 for the second.

KKPMSASALFVQDHRPQFLIENPKTSLEDATLQIEELWKTLSLEEKLKYEEKATKDLERYNSQMKR [E43L] and KKPMSASALFVQDHRPQFLIENPKTSLEDATLQIEELWKTLSEEEKLKYEEKATKDLERQNSQMKR [Y60Q] are within error of each other in abundance fitness: -0.06 ± 0.049 for the first, -0.092 ± 0.13 for the second.

KKPMSASALFVQDHRPQFLIENPKTSLEDATLQIEELWKTLSEEEKLKYEEKATKDLERANSQMKR [Y60A] and KKPMSASAKFVQDHRPQFLIENPKTSLEDATLQIEELWKTLSEEEKLKYEEKATKDLERYNSQMKR [L9K] are within error of each other in abundance fitness: -0.178 ± 0.091 for the first, -0.044 ± 0.19 for the second.

KKPMSASALFVQDHRPQFLIENPKTSLEDATLQIEELWKTLSEEEKDKYEEKATKDLERYNSQMKR [L47D] and KKPMSASALFVQDHRPQFLIENPKTSLEDATLQIEELWKTLSEEEKFKYEEKATKDLERYNSQMKR [L47F] are within error of each other in abundance fitness: -0.157 ± 0.16 for the first, -0.085 ± 0.16 for the second.

KKPMSASALFVQDHRPQFLIENPKTSLEDATLQIEETWKTLSEEEKLKYEEKATKDLERYNSQMKR [L37T] and KKPMSASALFVQDHRPQFLIENPKTSLEDATLQIEELWKTLSEEEKLKYEEKATKDLERYISQMKR [N61I] are within error of each other in abundance fitness: -0.123 ± 0.27 for the first, -0.464 ± 0.13 for the second.

KKPMSASALFVQDHRPQFLIENPKTSLEDATLQIEELRKTLSEEEKLKYEEKATKDLERYNSQMKR [W38R] and KKPMSASALFVQDHRPQFLIENPKTSLEDATLQIEELWHTLSEEEKLKYEEKATKDLERYNSQMKR [K39H] are within error of each other in abundance fitness: -0.292 ± 0.13 for the first, -0.205 ± 0.32 for the second.

Going from KKPMSASALFVQDHRPQFLIENPKTSLEDATLQIEELWSTLSEEEKLKYEEKATKDLERYNSQMKR [K39S] to KKPMSASALFVQDHRPQFLIENPKTSLEDATLQIEELWGTLSEEEKLKYEEKATKDLERYNSQMKR [K39G], the abundance fitness falls from -0.081 ± 0.25 to -0.875 ± 0.12.

KKPMSASALFVQDHRPQFLIENPKTSLEDATLQIEELWVTLSEEEKLKYEEKATKDLERYNSQMKR [K39V] and KKPMSASALFVQDHRPQFLIENPKTSLEDATLQIEELWKTLSEFEKLKYEEKATKDLERYNSQMKR [E44F] are within error of each other in abundance fitness: -0.465 ± 0.23 for the first, -0.284 ± 0.11 for the second.

Going from KKPMSASALFVQDHLPQFLIENPKTSLEDATLQIEELWKTLSEEEKLKYEEKATKDLERYNSQMKR [R15L] to KKPMSASALFVQDHDPQFLIENPKTSLEDATLQIEELWKTLSEEEKLKYEEKATKDLERYNSQMKR [R15D], the abundance fitness falls from 0.003 ± 0.084 to -0.729 ± 0.11.

KKPMSASALFVQDHTPQFLIENPKTSLEDATLQIEELWKTLSEEEKLKYEEKATKDLERYNSQMKR [R15T] and KKPMSASALFVQDHRPQFLIENPKTSLEDATLQIEELWKTLTEEEKLKYEEKATKDLERYNSQMKR [S42T] are within error of each other in abundance fitness: -0.111 ± 0.27 for the first, -0.078 ± 0.06 for the second.

KKPMSASALFVQDHRPQFLIENPKTSLEDATLQIEELWKTLQEEEKLKYEEKATKDLERYNSQMKR [S42Q] gave an abundance fitness of -0.322 ± 0.063.
